Target: human KIX domain of CBP with saturating DUX4 9aaTAD peptide (human, UniProt Q92793;Q9UBX2)
Assay: MST

Chain of human KIX domain of CBP with saturating DUX4 9aaTAD peptide (Q92793 587-673, one chain of several): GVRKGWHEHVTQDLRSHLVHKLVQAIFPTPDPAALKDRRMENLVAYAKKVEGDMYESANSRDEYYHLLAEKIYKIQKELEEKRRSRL

Kd: ~1.1 µM
Binder: EEEYRALLEE [DUX4 KBM peptide (E414-E423)]

— publication doi:10.1101/732289 (bioRxiv, 2020)
